Biological target: T1, NgR (Homo sapiens, UniProt Q9BZR6)
T1 construct: expressed in transfected cells; host or cells: COS-7
T1 sequence (Q9BZR6 27-447): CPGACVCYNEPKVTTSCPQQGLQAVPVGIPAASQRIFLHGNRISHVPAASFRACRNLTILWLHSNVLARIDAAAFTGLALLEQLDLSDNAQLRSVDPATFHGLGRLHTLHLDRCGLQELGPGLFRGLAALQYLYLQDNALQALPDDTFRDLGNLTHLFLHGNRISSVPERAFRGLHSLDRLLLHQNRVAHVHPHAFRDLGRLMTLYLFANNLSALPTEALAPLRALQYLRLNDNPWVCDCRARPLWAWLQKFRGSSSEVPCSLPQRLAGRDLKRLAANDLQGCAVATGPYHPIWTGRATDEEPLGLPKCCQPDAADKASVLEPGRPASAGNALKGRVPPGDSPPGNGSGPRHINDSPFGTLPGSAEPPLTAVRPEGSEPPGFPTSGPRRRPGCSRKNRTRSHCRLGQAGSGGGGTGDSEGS
Assay: AP fusion protein binding to NgR expressing COS-7 cells
Conditions: for binding to NgR (COS-7 cells expressing NgR): qualitative
Source text: Several alkaline phosphatase (AP) fusion proteins containing various Nogo-A segments derived from regions between the amino terminus and the first hydrophobic segment were examined to identify the mechanism of Amino-Nogo-A action. To generate additional AP fusion proteins, human amino Nogo fragments were amplified and ligated to the pcAP6 vector digested with restriction enzymes EcoRI and XhoI as described (Fournier, A. E., et al., Nature 409:341-346 (2001)). Plasmids were then transfected into HEK293T cells and conditioned media were collected after 7 days. None of these fragments bind with high affinity to non-transfected COS-7 cells. […] This binding is saturable with a Kd indistinguishable from that for AP-Nogo-66 association with NgR (Table I). To better define the region responsible for Amino-Nogo interaction with NgR, a range of truncation mutants of Amino-Nogo were examined as AP fusion proteins. […] In fact, the NgR-interacting segment of Amino-Nogo is fully accounted for in the extreme carboxyl 24 amino acids (aa 995-1018, Amino-Nogo-A-24) (Table I and FIG. 1D). […] We named this domain (aa 995-1013) as Amino-Nogo-A-19.
Binding Kds for AP fused Amino-Nogo fragments were measured by applying conditioned media containing AP fusion protein to NgR expressing COS-7 cells. Bound AP was stained and measured.
It has been recognized that the Amino-Nogo-A protein inhibits non-neuronal cell spreading and axonal outgrowth when the protein is substrate bound (Chen, M. S., et al., Nature 403:434-439 (2000); Fournier, A. E., et al., Nature 409:341-346 (2001)). […] The later domain has been termed Δ20. To determine whether the NgR-interacting aa of Amino-Nogo-A described in Example 1 regulate cell spreading and axonal outgrowth, various fragments were expressed as GST fusion proteins and purified from E. coli. To generate GST fusion proteins, amino Nogo fragments were cloned in pGEX2T (Amersham Pharmacia). Native and soluble GST fusion proteins were expressed and purified as described (GrandPre, T., et al., Nature 403:439-444 (2000)). COS-7 binding assays were done as described (Fournier, A. E., et al., Nature 409:341-346 (2001)). Bound AP to COS-7 cells was measured using NIH image software. Fibroblast spreading and cDRG outgrowth assay were done as described (Fournier, A. E., et al., Nature 409:341-346 (2001)) with some modifications. Briefly, 50 μl of purified GST fusion protein or peptides diluted in PBS was pipetted into polylysine precoated 96 well plates (Becton Dickson Biocoat plates) and dried overnight at room temperature. For fibroblast spreading assay, subconfluent COS-7 cells were then plated for 1 hour in serum containing medium before fixation and staining with rho damine-phalloidin.

[1] = AP fused Amino-Nogo fragments in conditioned media on NgR expressing COS-7 cells, 'No binding at' cells continue on the next line: AmNg A 150 nM, a.a. 1000-1018, a.a. 1005-1018, Amino of NgC 25 nM, a.a. 950-1004 50 nM, Amino of NgB 100 nM

B1: a.a. 622-1018 (AmNg B): AP fusion protein of the carboxyl half of Amino-Nogo (fragment B), aa 622-1018 (protein)
chain: SAVPSAGASVIQPSSSPLEASSVNYESIKHEPENPPPYEEAMSVSLKKVSGIKEEIKEPENINAALQETEAPYISIACDLIKETKLSAEPAPDFSDYSEMAKVEQPVPDHSELVEDSSPDSEPVDLFSDDSIPDVPQKQDETVMLVKESLTETSFESMIEYENKEKLSALPPEGGKPYLESFKLSLDNTKDTLLPDEVSTLSKKEKIPLQMEELSTAVYSNDDLFISKEAQIRETETFSDSSPIEIIDEFPTLISSKTDSFSKLAREYTDLEVSHKSEIANAPDGAGSLPCTELPHDLSLKNIQPKVEEKISFSDDFSKNGSATSKVLLLPPDVSALATQAEIESIVKPKVLVKEAEKKLPSDTEKEDRSPSAIFSAELSKTSVVDLLYWRDIKKTG
modifications: left off: large carriers
B1 was tested, and the Kd [1] was 6.66 ± 1.49 nM and the “binding to NgR (COS-7 cells expressing NgR)” value was “high affinity binding”.

B2: Amino of NgB: AP fusion protein of Amino-Nogo residues of Nogo-B (protein)
chain: MEDLDQSPLVSSSDSPPRPQPAFKYQFVREPEDEEEEEEEEEEDEDEDLEELEVLERKPAAGLSAAPVPTAPAAGAPLMDFGNDFVPPAPRGPLPAAPPVAPERQPSWDPSPVSSTVPAPSPLSAAAVSPSKLPEDDEPPARPPPPPPASVSPQAEPVWTPPAPAPAAPPSTPAAPKRRGSSGSVVVDLLYWRDIKKTG
modifications: left off: large carriers
notes: AP fusion protein of Amino-Nogo residues of Nogo-B
In the case of B2, the “NgR Kd (nM)” value [1] is reported as “No binding” and the “binding to NgR (COS-7 cells expressing NgR)” value is reported as “fail to associate with NgR-expressing cells”.

B3: AP-B4C-66: AP fusion protein with the B4C fragment of Amino-Nogo-A fused directly to Nogo-66 (protein)
chain: LLPPDVSALATQAEIESIVKPKVLVKEAEKKLPSDTEKEDRSPSAIFSAELSKTSVVDLLYWRDIKKTGRIYKGVIQAIQKSDEGHPFRAYLESEVAISEELVQKYSNSALGHVNCTIKELRRLFLVDDLVDSLK
modifications: left off: large carriers
In the case of B3, the “Kd for binding of AP-B4C-66 to NgR” value (NgR expressing COS-7 cells, FIGS. 6A and 6B) is reported as “subnanomolar”.

B4: a.a. 877-1018 (AmNg B4): AP fusion protein of Amino-Nogo fragment B4, aa 877-1018 (protein)
chain: SKTDSFSKLAREYTDLEVSHKSEIANAPDGAGSLPCTELPHDLSLKNIQPKVEEKISFSDDFSKNGSATSKVLLLPPDVSALATQAEIESIVKPKVLVKEAEKKLPSDTEKEDRSPSAIFSAELSKTSVVDLLYWRDIKKTG
modifications: left off: large carriers
In the case of B4, the Kd [1] is reported as 9.01 ± 6.36 nM.
